# PMC4434323
# Molecular target: T1, fkh-9 (K03C7.2) (Caenorhabditis elegans) (UniProt Q21187)
# T1 sequence: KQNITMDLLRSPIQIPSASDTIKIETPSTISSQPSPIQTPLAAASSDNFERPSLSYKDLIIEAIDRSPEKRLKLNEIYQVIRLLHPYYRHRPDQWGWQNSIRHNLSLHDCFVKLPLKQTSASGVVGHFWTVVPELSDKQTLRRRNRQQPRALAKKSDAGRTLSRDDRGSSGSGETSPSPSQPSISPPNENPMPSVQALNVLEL
row,Sequence,binding signal (PBM E-score (-0.5 to 0.5))
1,CATAACAA (double strand) [8-mer CATAACAA],0.486
2,CAAAACAA (double strand) [8-mer CAAAACAA],0.494
3,AAAACAAC (double strand) [8-mer AAAACAAC],0.491
4,AATAACAA (double strand) [8-mer AATAACAA],0.494
5,TCAAAACA (double strand) [8-mer TCAAAACA],0.491
6,GAAAACAA (double strand) [8-mer GAAAACAA],0.489
7,TCATAACA (double strand) [8-mer TCATAACA],0.485
8,AACAACAA (double strand) [8-mer AACAACAA],0.487
9,AAAAACAA (double strand) [8-mer AAAAACAA],0.49
10,CAATAACA (double strand) [8-mer CAATAACA],0.488
11,TAAAAACA (double strand) [8-mer TAAAAACA],0.485

# Molecular target: T2, T22H9.4 (T22H9.4) (Caenorhabditis elegans) (UniProt Q9TXN8)
# T2 sequence: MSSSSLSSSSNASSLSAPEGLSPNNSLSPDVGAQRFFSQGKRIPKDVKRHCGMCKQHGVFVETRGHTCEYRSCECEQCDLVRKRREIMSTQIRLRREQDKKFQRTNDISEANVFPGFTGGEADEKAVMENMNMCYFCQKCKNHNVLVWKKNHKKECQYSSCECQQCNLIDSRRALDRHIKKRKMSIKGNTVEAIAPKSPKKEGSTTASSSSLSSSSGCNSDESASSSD
row,Sequence,binding signal (PBM E-score (-0.5 to 0.5))
1,GTTGAAAA (double strand) [8-mer GTTGAAAA],0.495
2,TGTTGAAA (double strand) [8-mer TGTTGAAA],0.499
3,GTTAAAAA (double strand) [8-mer GTTAAAAA],0.494
4,ATTGCAAC (double strand) [8-mer ATTGCAAC],0.493
5,ATTTCAAC (double strand) [8-mer ATTTCAAC],0.497
6,ATTTTAAC (double strand) [8-mer ATTTTAAC],0.491
7,ATTCAACA (double strand) [8-mer ATTCAACA],0.49
8,TGTCGAAA (double strand) [8-mer TGTCGAAA],0.495
9,TGTTAAAA (double strand) [8-mer TGTTAAAA],0.496
10,TGTAGAAA (double strand) [8-mer TGTAGAAA],0.489
11,TGTTGCAA (double strand) [8-mer TGTTGCAA],0.499
12,GTTGCAAC (double strand) [8-mer GTTGCAAC],0.489
13,TGTTACAA (double strand) [8-mer TGTTACAA],0.488
14,CGTTGCAA (double strand) [8-mer CGTTGCAA],0.488
15,GTTGCAAA (double strand) [8-mer GTTGCAAA],0.493

# Molecular target: T3, elt-6 (F52C12.5) (Caenorhabditis elegans) (UniProt G5EGN3)
# T3 sequence: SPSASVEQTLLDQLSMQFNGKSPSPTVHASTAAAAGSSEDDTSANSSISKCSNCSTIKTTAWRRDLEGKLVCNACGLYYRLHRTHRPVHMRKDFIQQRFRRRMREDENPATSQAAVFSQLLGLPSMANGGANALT
row,Sequence,binding signal (PBM E-score (-0.5 to 0.5))
1,GTGATAAA (double strand) [8-mer GTGATAAA],0.491
2,CTTATCAC (double strand) [8-mer CTTATCAC],0.496
3,GTGATAAC (double strand) [8-mer GTGATAAC],0.492
4,AGTGATAA (double strand) [8-mer AGTGATAA],0.495

# Molecular target: T4, mab-3 (Y53C12B.5) (Caenorhabditis elegans) (UniProt O18214)
# T4 sequence: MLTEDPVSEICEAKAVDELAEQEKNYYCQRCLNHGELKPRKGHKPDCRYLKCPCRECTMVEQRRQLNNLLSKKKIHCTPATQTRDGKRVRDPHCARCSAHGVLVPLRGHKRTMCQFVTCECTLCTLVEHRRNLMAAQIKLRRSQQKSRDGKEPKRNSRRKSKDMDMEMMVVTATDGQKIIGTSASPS
row,Sequence,binding signal (PBM E-score (-0.5 to 0.5))
1,ATGCAACA (double strand) [8-mer ATGCAACA],0.482
2,ATTGTTGC (double strand) [8-mer ATTGTTGC],0.486
3,TGGCAACA (double strand) [8-mer TGGCAACA],0.481
4,ACGCAACA (double strand) [8-mer ACGCAACA],0.484
5,TCGCAACA (double strand) [8-mer TCGCAACA],0.499
6,ATGTTGCG (double strand) [8-mer ATGTTGCG],0.499
7,CGCAACAA (double strand) [8-mer CGCAACAA],0.487
8,CCGCAACA (double strand) [8-mer CCGCAACA],0.482
9,TGTTGCAA (double strand) [8-mer TGTTGCAA],0.497
10,GTTGCAAC (double strand) [8-mer GTTGCAAC],0.479
11,ATGTTGCC (double strand) [8-mer ATGTTGCC],0.477
12,GCAACATA (double strand) [8-mer GCAACATA],0.493
13,GATGTTGC (double strand) [8-mer GATGTTGC],0.495

# Molecular target: dmd-5 (F10C1.5) (Caenorhabditis elegans) (UniProt Q19291)
# Sequence (Q19291 1-125): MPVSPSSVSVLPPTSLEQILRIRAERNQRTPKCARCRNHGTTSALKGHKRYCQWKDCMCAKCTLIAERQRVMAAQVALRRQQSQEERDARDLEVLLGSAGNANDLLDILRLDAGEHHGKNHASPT
row,Sequence,binding signal (PBM E-score (-0.5 to 0.5))
1,AATGTATC (double strand) [8-mer AATGTATC],0.485
2,AATTGTTA (double strand) [8-mer AATTGTTA],0.478
3,TGTAACAA (double strand) [8-mer TGTAACAA],0.484
4,ATGTTACA (double strand) [8-mer ATGTTACA],0.475
5,ACAGTAAC (double strand) [8-mer ACAGTAAC],0.482
6,ACTGTTGC (double strand) [8-mer ACTGTTGC],0.488
7,ATGTATCA (double strand) [8-mer ATGTATCA],0.486
8,ACTGTAAC (double strand) [8-mer ACTGTAAC],0.49
9,TGTATCAA (double strand) [8-mer TGTATCAA],0.49
10,ATTGTAAC (double strand) [8-mer ATTGTAAC],0.481
11,TGTTACAA (double strand) [8-mer TGTTACAA],0.484
12,ACTGTATC (double strand) [8-mer ACTGTATC],0.484
13,ACAGTTGC (double strand) [8-mer ACAGTTGC],0.489
14,ATTGTATC (double strand) [8-mer ATTGTATC],0.486
15,ATTGTTAC (double strand) [8-mer ATTGTTAC],0.476

# Molecular target: dmd-4 (C27C12.6) (Caenorhabditis elegans) (UniProt Q18248)
# Sequence (Q18248 1-114): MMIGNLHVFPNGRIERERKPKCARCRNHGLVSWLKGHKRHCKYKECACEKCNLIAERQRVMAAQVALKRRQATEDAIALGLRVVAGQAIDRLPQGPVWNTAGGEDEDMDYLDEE
row,Sequence,binding signal (PBM E-score (-0.5 to 0.5))
1,AATGTATC (double strand) [8-mer AATGTATC],0.494
2,TGTAACAA (double strand) [8-mer TGTAACAA],0.483
3,ATGTATCA (double strand) [8-mer ATGTATCA],0.493
4,TGTATCAA (double strand) [8-mer TGTATCAA],0.496
5,ATTGTATC (double strand) [8-mer ATTGTATC],0.491

# Molecular target: T5, efl-2 (Y48C3A.17) (Caenorhabditis elegans) (UniProt A5HWA8)
# T5 sequence: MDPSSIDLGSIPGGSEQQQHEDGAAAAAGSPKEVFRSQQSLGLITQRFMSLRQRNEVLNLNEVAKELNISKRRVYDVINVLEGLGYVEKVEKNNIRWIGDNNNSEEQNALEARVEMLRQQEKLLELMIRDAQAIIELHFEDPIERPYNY
row,Sequence,binding signal (PBM E-score (-0.5 to 0.5))
1,CGCGCGCA (double strand) [8-mer CGCGCGCA],0.491
2,CGCGCGCC (double strand) [8-mer CGCGCGCC],0.488
3,GCGCGCAC (double strand) [8-mer GCGCGCAC],0.487
4,GCGCGCCA (double strand) [8-mer GCGCGCCA],0.49
5,AGGCGCGC (double strand) [8-mer AGGCGCGC],0.487
6,ACGCGCGC (double strand) [8-mer ACGCGCGC],0.49
7,ACCCGCGC (double strand) [8-mer ACCCGCGC],0.486
8,GAGCGCGC (double strand) [8-mer GAGCGCGC],0.486
9,AGCGCGCC (double strand) [8-mer AGCGCGCC],0.488
10,ATGCGCGC (double strand) [8-mer ATGCGCGC],0.485
11,GCGCGCGA (double strand) [8-mer GCGCGCGA],0.485

# Test system: T6, C34D1.1 (C34D1.1) (Caenorhabditis elegans)
# T6 sequence: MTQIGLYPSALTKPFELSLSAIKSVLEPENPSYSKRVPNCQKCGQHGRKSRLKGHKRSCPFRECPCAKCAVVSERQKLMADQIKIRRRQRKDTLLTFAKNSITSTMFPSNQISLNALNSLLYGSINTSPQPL
row,Sequence,binding signal (PBM E-score (-0.5 to 0.5))
1,TGTTGCAA (double strand) [8-mer TGTTGCAA],0.469
2,CATGTTTC (double strand) [8-mer CATGTTTC],0.469
3,GTGAAACA (double strand) [8-mer GTGAAACA],0.484

# Molecular target: T7, dmd-6 (F13G11.1) (Caenorhabditis elegans) (UniProt O62159)
# T7 sequence: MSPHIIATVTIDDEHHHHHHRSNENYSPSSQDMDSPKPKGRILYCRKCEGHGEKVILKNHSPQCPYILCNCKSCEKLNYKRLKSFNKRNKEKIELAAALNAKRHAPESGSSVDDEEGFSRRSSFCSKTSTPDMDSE
row,Sequence,binding signal (PBM E-score (-0.5 to 0.5))
1,AAATATTT (double strand) [8-mer AAATATTT],0.482
2,AAATTTTA (double strand) [8-mer AAATTTTA],0.477
3,AAATTTAT (double strand) [8-mer AAATTTAT],0.479
4,AAAAGTTA (double strand) [8-mer AAAAGTTA],0.486
5,AAATGTTA (double strand) [8-mer AAATGTTA],0.475
6,AAAAAGTT (double strand) [8-mer AAAAAGTT],0.484
7,AAAATTTA (double strand) [8-mer AAAATTTA],0.471
